Tests used:
Settings in all cases: glycan lost; control: wild-type mice
[1] = body weight at three months, n=6 per genotype
[2] = TAB1 IP and immunoblot, brain tissue
[3] = breeding homozygous knock-in mice with WT
[4] = heart weight per g body weight, three months
[5] = heterozygous crosses, observation of homozygous knock-in mice

B1: TAB1 (TGF-β activated kinase-1 binding protein-1): S393A (protein)
parent chain: MAAQRRSLLQSEQQPSWTDDLPLCHLSGVGSASNRSYSADGKGTESHPPEDNWLKFRSENNCFLYGVFNGYDGNRVTNFVAQRLSAELLLGQLNTEHTEADVRRVLLQAFDVVERSFLESIDDALAEKASLQSQLPEGVPQHQLPPQYQKILERLKALEREISGGAMAVVAVLLNSKLYVANVGTNRALLCKSTVDGLQVTQLNMDHTTENEDELFRLSQLGLDAGKIKQMGVICGQESTRRIGDYKVKYGYTDIDLLSAAKSKPIIAEPEIHGAQPLDGVTGFLVLMSEGLYKALEAAHGPGQANQEIAAMIDTEFAKQTSLDAVAQAVVDRVKRIHSDTFASGGERAKFCPRHEDMTLLVRNFGYPLGEMSQPTPTPAPGGRVYPVSVPYSSAQSTSKTSVTLSLVMPSQGQMVNGSHSASTLDEATPTLTNQSPTLTLQSTNTHTQSSSSSSDGGLFRSRPAHSLPPGEDGRVEPYVDFAEFYRLWSVDHGEQSVMTAP
no change: other: body weight [1] | expression_or_secretion [2] | other: fertility [3] | other: heart weight [4] | other: mouse viability and development [5]
